Target: the molecule itself
Assay: thioflavin-T fluorescence of fibrillation + electron microscopy; 40 μM apo protein in 10 mM potassium phosphate, pH 7.0, with TCEP (0-10 mM) and 40 μM thioflavin-T, 37°C, agitated at 300 rpm in 96-well plates with a Teflon ball; fibrils seen by negative-stain EM

B1: apo C6A/C111S human SOD1 (apo AS-SOD1) (enzyme)
chain: not shown
modifications: no N-terminal acetylation (expression in E. coli); metal-free (apo); C57-C146 disulfide intact at the start and reduced by TCEP in the reaction
notes: Cu/Zn superoxide dismutase 1 (SOD1), human, 153-residue subunit, both free cysteines removed (C6A, C111S); numbers count on: the mature protein (numbered from A1); The printed mass of AS S-S (15756.43 Da) appears to fit the 153-residue chain without Met and without acetyl; also called AS mutant; apo AS^S–S; source: E. coli, purified, demetallated by dialysis (apo)
binding result: binds

Reference: PMC7930385, “A Novel SOD1 Intermediate Oligomer, Role of Free Thiols and Disulfide Exchange” (Frontiers in Neuroscience, 2020)
